Laboratory results published in patent publication US20250381277A1, “COMPOSITIONS AND METHODS FOR TREATMENT OF NEUROLOGICAL DISORDERS” (Dana-Farber Cancer Institute, Inc., priority 2022, published 2025).

Columns and labels:
CD11c^− microglia = test: Apoptotic neuron (AN) uptake and CD11c^- to CD11c^+ differentiation of microglia with αVβ3 / TAM receptor inhibitors; format: cell-based, mouse; conditions: P5 B6-WT CD11c^− microglia, 72 h with pHrodo-labeled ANs 1:1; cilengitide 10 μM, LDC1267 1 μM
Text: (A) Brain single cell suspensions of 9-mo old WT mice were generated for validation of microglial CD11c expression by flow cytometry. We first gate on CD11b^+ cells from single/live cells followed by subsequent gating of CD11b^+CD45^low populations as potential microglia. […] In contrast, CCR2 but not Tmem 119 expression is detected in the CD11b^+CD45^high fraction, i.e., putative macrophage populations. Analysis of the CD11b^+CD45^low microglial population using FMO negative controls for these FACS plots confirms specificity. […] (B) The proportion of CD11c^+ microglia in C57BL/6 (B6) mice during early development and normal aging (n=3) was determined by flow cytometry analysis. CD11c^+ microglia were initially present at late embryonic day (E18.5), peaked at early postanal day (P5) and gradually declined to marginal levels in young adulthood (3-mon) followed by re-emergence and further expansion during aging. (C) CD11c^− microglia were isolated from P5 B6-WT mice by negative section with anti-CD11c magnetic beads (purity >99%) followed by co-incubation×72 h in the presence or absence of pHrodo fluorescent dye-labeled apoptotic neurons (ANs) at a 1:1 ratio. After 72 h incubation, 23% of total CD11c^− microglia had ingested ANs (AN^+), of which 77.4% of these AN^+ microglia were CD11c^+. […] Expression of CD11c was assessed in CD86^+ or MHC II^+ activated microglia. […]

[1] = target: CD11b on microglia from 5XFAD mice (mouse) (UniProt P05555); test: flow cytometry, AF488-CD11b fluorescence, microglia from 5XFAD mice; isotype control histogram (top trace) [B]
UniProt P05555, sequence (P05555 17-1153): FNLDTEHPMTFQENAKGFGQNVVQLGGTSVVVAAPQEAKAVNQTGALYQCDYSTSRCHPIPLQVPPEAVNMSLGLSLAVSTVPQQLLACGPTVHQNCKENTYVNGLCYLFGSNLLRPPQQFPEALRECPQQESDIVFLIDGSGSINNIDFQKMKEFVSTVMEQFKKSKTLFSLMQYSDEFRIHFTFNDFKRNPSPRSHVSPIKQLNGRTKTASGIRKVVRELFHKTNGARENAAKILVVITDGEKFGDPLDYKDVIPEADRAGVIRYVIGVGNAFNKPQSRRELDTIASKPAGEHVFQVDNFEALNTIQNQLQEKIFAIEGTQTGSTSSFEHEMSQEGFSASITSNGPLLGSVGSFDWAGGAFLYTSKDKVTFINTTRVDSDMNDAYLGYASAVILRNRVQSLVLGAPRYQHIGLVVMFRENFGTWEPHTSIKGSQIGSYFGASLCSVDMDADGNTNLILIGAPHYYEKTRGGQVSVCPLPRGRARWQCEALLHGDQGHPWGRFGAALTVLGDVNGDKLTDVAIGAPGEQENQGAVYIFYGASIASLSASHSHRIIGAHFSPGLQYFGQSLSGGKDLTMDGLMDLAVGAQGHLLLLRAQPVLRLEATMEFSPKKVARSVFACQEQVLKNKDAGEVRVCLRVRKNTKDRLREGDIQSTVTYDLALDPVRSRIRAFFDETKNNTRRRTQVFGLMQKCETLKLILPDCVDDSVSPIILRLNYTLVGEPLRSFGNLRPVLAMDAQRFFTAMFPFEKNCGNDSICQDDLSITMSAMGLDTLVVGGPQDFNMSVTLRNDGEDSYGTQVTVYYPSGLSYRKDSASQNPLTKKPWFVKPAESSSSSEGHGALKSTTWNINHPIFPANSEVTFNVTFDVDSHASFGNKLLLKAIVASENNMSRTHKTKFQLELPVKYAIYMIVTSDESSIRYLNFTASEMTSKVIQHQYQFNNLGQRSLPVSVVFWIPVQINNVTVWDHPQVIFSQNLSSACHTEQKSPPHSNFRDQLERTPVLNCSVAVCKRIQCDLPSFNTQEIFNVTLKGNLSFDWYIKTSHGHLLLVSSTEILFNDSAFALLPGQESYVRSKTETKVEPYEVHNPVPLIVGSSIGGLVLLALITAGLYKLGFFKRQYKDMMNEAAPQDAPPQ

[2] = target: osteopontin (OPN) produced by mouse microglia (mouse) (UniProt P10923); test: intracellular flow cytometry, SSC against OPN, microglia of 9-mo mice stained with the isotype control 1:10 (genotype of this panel not labelled)
UniProt P10923, sequence (P10923 17-294 limits assumed): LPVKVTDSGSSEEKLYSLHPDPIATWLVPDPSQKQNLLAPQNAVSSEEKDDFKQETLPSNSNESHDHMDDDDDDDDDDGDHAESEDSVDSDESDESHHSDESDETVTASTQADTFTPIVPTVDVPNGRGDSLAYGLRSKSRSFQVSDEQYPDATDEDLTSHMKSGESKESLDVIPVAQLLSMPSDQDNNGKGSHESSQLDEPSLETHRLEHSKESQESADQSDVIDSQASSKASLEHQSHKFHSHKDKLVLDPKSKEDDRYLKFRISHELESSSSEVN

[3] = target: osteopontin (OPN) produced by mouse microglia (mouse) (UniProt P10923); test: intracellular flow cytometry, SSC against OPN, microglia stained with the isotype control (the legend says only 'Isotype control'; genotype of this panel not labelled) [b]

In the case of CCOc1cn(-c2ccc(F)cc2C)nc1C(=O)Nc1ccc(Oc2ccnc3cc(OC)c(OC)cc23)c(F)c1 [LDC1267], the “reduction of AN uptake by CD11c^− microglia” value (CD11c^− microglia) was “about 50%”.

Compound Isotype (antibody) has a CD11b+ microglia (%) [1] of 0.4%.

“isotype control (PE-conjugated goat IgG) (antibody)” gave a number printed over the OPN+ gate (frequency of OPN+ microglia) [2] of 0.4% and a number printed in the OPN+ gate (frequency of OPN+ microglia) [3] of 0.25%.
